According to PMC7363588, “Mapping of the FGF14:Nav1.6 complex interface reveals FLPK as a functionally active peptide modulating excitability” (Physiological Reports, 2020):

T1: FGF14-1b (aa 64-252), purified recombinant (human) (UniProt Q92915)
T1 sequence: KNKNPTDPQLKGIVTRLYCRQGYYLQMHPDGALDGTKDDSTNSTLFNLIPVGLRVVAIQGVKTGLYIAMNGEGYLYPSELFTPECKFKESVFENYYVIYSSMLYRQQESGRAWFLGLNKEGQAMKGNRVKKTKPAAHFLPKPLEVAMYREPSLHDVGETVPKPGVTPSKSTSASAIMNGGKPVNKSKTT


Tests used:
Nav channels = settings: peptide sequences derived from the LITFILKK motif of Navβ4 cytoplasmic tail; ref Grieco, Malhotra, Chen, Isom, & Raman, 2005; White et al., 2019; cited from earlier work
Excerpt: The presence of other accessory proteins that directly interact with Nav1.6 in the native system may contribute to the reported activity of FLPK. A critical determinant required for repetitive firing in MSN and Purkinje neurons is the Navβ4 accessory subunit (Ji et al., 2017; White et al., 2019).

[1] = molecular target: T1, FGF14-1b (aa 64-252), purified recombinant (human); assay: SPR; Biacore T100, 25°C; FGF14 (RU 16,000), FGF14 V160A (RU 18,000) or Nav1.6 C-tail (RU 12,000) amine-coupled on CM5 chip; peptides 1-100 µM in HBS-P+ at 50 µl/min, 180 s association, 180 s dissociation; 1:1 binding model

Molecule	effect on fast inactivation and Na^+ currents (Nav channels)	koff [1] [s⁻¹]	kon [1] [M⁻¹ s⁻¹]
LITFILKK	prevent stable fast inactivation and generate resurgent and persistent Na^+ currents through a voltage‐dependent open‐channel block		
FLPK [FLPK tetrapeptide]		0.000431	84.4
